In assay [1] the target is T1, human IL1RAP on IL1RAP positive human cell lines (EOL-1, Karpas 299; HEK-Blue reporter cells) (human, UniProt Q9NPH3 21-570). Description: cell-based or functional assay.
Assay [2] has as its target T2, rat IL1RAP (Met1-Val570 plus Myc-DDK) on transfected 293 cells (Rattus norvegicus, UniProt Q63621 21-570).
T2 construct: whole, on cells; also called RR213032
In words: flow cytometry on 293 cells expressing rat IL1RAP (293-puro-ratIL1RAP) vs 293T-puro [cont.]. As to the method:
(§1) Staining for flow cytometry was performed in 1× cold PBS with 0.5% BSA. Primary antibodies (1 ug/ml) were incubated with live cells on ice for 30 minutes, after a brief wash, cells were incubated with Alexa Fluro® 488-conjugated anti-human IgG secondary antibody @1:1000 (709-546-149, Jackson ImmunoResearch). Acquisition of the data was performed on a MACSQuant® Flow Cytometers (Miltenyi Biotec) and analyzed with FlowJo software.
(In flow cytometry, cells or beads pass a laser one at a time.)

The target of assay [3] is T1, human IL1RAP on IL1RAP positive human …. In words: cell-based or functional assay. The source holds these as a separate data set.
Assay [4] shares this target. Description: cell-based or functional assay. This is another data set of the same source.
Assay [5] addresses T3, huIL1RAP ECD recombinant protein (human, UniProt Q9NPH3 21-367).
T3 construct: also called recombinant human IL1RAP-ECD; recombinant human IL1RAP; not shown: C-terminal histidine tag for purification
In words: Octet BLI, antibody on Protein A biosensor, recombinant huIL1RAP ECD. Here is the method:
Affinity: The affinity of antibodies to various recombinant IL1RAP protein was determined on an Octet Red™ instrument. After loading reagents into a 96-well plate, the Octet Red™ with Protein A-conjugated biosensors was programmed as follows: 30 seconds for baseline #1; 120 seconds to immobilize the antibody; 30 seconds for baseline #2; 300 seconds for association of antibody to recombinant IL1RAP; and 300-600 seconds for dissociation of recombinant IL1RAP from the antibody.
Background: BLI is a label-free optical method that tracks binding on a fibre tip over time.

Assay [6] concerns the target T1, human IL1RAP on IL1RAP positive human …. Description: cell-based or functional assay. The source holds these as a separate data set.
In assay [7] the target is T4, mouse IL1RAP (Met1-Val570 plus Myc-DDK) on transfected 293 cells (Mus musculus, UniProt Q61730 21-570).
T4 construct: whole, on cells; also called MR223729
In words: flow cytometry on 293 cells expressing mouse IL1RAP (293-puro-mouseIL1RAP) vs 293T-puro [cont.]. Here is the method:
as §1

For assay [8], the target named is T2, rat IL1RAP (Met1-Val570 plus Myc-DDK) …. Description: flow cytometry on 293 cells expressing rat IL1RAP (293-puro-ratIL1RAP) vs 293T-puro; 1 ug/ml antibody, Alexa 488 anti-human IgG secondary. As to the method:
as §1

For assay [9] the target is unchanged. Description: flow cytometry on 293 cells expressing rat IL1RAP (293-puro-ratIL1RAP) vs 293T-puro. As to the method:
as §1

Assay [10] addresses T4, mouse IL1RAP (Met1-Val570 plus Myc-DDK) …. Description: flow cytometry on 293 cells expressing mouse IL1RAP (293-puro-mouseIL1RAP) vs 293T-puro. As to the method:
as §1

The target of assay [11] is T3, huIL1RAP ECD recombinant protein. In words: affinity for human IL1RAP (Octet); Table 7 prints 1.4 nM for the same antibody.

T2 sequence (Q63621 21-570): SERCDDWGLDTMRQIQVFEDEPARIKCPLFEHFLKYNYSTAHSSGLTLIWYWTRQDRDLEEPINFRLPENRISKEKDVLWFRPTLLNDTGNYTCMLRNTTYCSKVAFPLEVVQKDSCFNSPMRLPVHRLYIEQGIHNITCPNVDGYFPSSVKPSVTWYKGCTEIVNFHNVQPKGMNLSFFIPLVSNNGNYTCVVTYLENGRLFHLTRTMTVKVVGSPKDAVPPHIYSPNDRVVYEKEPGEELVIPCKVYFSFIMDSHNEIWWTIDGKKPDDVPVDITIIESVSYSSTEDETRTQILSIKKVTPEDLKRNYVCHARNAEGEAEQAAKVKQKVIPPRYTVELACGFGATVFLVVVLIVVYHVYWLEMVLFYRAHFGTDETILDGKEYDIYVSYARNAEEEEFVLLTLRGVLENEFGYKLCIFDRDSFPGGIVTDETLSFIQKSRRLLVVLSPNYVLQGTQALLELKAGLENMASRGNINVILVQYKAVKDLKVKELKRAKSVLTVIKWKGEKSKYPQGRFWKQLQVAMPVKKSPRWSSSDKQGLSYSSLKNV
T4 sequence (Q61730 21-570): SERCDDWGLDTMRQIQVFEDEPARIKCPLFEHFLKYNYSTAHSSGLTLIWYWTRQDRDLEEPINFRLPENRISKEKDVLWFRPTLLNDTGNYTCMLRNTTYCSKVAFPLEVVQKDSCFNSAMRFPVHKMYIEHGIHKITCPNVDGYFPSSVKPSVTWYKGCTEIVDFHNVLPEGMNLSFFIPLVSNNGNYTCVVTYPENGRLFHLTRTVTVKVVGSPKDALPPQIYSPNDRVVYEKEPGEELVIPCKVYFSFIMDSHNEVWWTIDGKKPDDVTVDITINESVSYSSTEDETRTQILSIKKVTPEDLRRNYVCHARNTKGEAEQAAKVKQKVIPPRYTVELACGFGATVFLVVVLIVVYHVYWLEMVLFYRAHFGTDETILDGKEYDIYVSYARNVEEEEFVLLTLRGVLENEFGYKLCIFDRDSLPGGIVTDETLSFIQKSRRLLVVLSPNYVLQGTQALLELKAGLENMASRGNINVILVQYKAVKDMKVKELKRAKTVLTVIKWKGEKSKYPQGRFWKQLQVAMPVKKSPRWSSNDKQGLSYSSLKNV

B1: 37E10_15B5 (antibody, V domains shown)
VH: QVQLVESGGGVVQPGRSLRLSCAASGFTFRSHGMHWVRQAPGKGLEWVAVIWYDGSSEYYADSVKGRFTISRDNSKNTLYLQMNSLRAEDTAVYYCARENVYGSGWFFDYWGQGTLVTVSS
VL: EIVMTQSPATLSVSPGERASLSCRASQSVGSNLAWYQQRPGQAPRLLIFGASTRATGIPARFSGSRSGTEFTLTISSLQSEDFALYYCQQYNNWPPWTFGQGTKLEIK
notes: also called BFB759
As usually defined, the Kd is a measure of binding affinity in units of concentration. Take B1: in assay [1], the “EC50 against IL-1alpha signaling, IL-1 reporter assay” value is under 1000 pM and the “EC50 against IL-1beta signaling, IL-1 reporter assay” value is under 1000 pM. For the same molecule, the binding result in assay [2] is listed as “no binding (tested: 1 ug/ml)”. Further, the “EC50, inhibition of signalling by 0.5 ng/ml IL-1beta in HEK-Blue IL-1beta reporter cells (Abs. 620 nM)” value in assay [3] was determined as 150 pM. Also, in assay [4], the “EC50, inhibition of signalling by 0.5 ng/ml IL-33 in HEK-Blue IL-33 reporter cells (Abs. 620 nm); the curve levels off at about 0.4, not at 0” value was found to be 320 pM. Moreover, in [5], the Kd amounted to 300 pM. In addition, the “EC50, inhibition of signalling by 0.5 ng/ml IL-1a (IL-1alpha) in the HEK-Blue IL-1 reporter assay (Abs. 620 nM)” value in [6] is 190 pM. For the same molecule, the binding result in [7] is listed as “no binding (tested: 1 ug/ml)”.

B2: 44E5_15C5 (antibody, V domains shown)
VH: QVQLVESGGGVVQPGRSLRLSCAASGFTFRSHGMHWVRQAPGKGLEWVAVIWYDGSSDYYADSVKGRFTISRDNSKNTLFLQMNSLSAEDTAVYYCARENVYGSGWFFDYWGQGTLVTVSS
VL: EIVMTQSPATLSVSPGERASLSCRASQSVGSNLAWYQQKPGQAPRLLIFGASTRATGIPARFSGSRSGTEFTLTISSLQSEDFALYYCQQYNNWPPWTFGQGTKLEIK
For B2, the “EC50 against IL-1alpha signaling, IL-1 reporter assay” value in assay [1] is under 1000 pM. In addition, the “EC50 against IL-1beta signaling, IL-1 reporter assay” value in [1] was under 1000 pM. Besides, the binding result in assay [2] and in [7] was “no binding (tested: 1 ug/ml)” throughout. The “EC50, inhibition of signalling by 0.5 ng/ml IL-1beta in HEK-Blue IL-1beta reporter cells (Abs. 620 nM)” value in assay [3] stood at 170 pM. Also, the “EC50, inhibition of signalling by 0.5 ng/ml IL-33 in HEK-Blue IL-33 reporter cells (Abs. 620 nm); the curve levels off at about 0.4, not at 0” value in assay [4] amounted to 440 pM. Besides, the Kd in [5] is 400 pM. In addition, the “EC50, inhibition of signalling by 0.5 ng/ml IL-1a (IL-1alpha) in the HEK-Blue IL-1 reporter assay (Abs. 620 nM)” value in assay [6] is 180 pM.

B3: 24G3_17C5 (antibody, V domains shown)
VH: EVQLLESGGGLVQRGGSLRLSCAASGFTFSSYAMSWVRQAPGKGLEWVSSISGSGDSTNYADSVKGRFTISRDNSKNTLHLQMNSLRAEDTAVYYCVRDYYYGMDVWGHGTTVTVSS
VL: EIVLTQSPATLSLSPGERATLSCRASQSVNSYLAWYQQKPGQAPRLLIYDASNRATGIPARFSGSGSGTDFTLTISSLEPEDFAVYYCQQRSYWPITFGQGTRLEIK
notes: Recombinant human antibody
Consider B3, for which the Kd in assay [5] turned out to be 37000 pM. In addition, the binding result in assay [8] is “binds”.

B4: 38E10_21C3 (antibody, V domains shown)
VH: EVQLLESGGGLVQPGGSLRLSCAASGFTFSNYAMTWVRQAPGKGLEWVSSISISRAGTYYADSVKGRFTISRDNSKNTLNLQMNSLRAEDTAEYYCAREYYYGMDVWGQGTTVTVSS
VL: EIVLTQSPATLSLSPGERATLSCRASQSVSSYLAWYQQKPGQTPRLLIYDASNRATGIPARFSGSGSGTDFTLTISSLETEDFAVYYCQQLINWPLTFGGGTKLEIK
notes: Recombinant human antibody
With B4, the binding result in assay [9] and in assay [10] was “no binding (tested: 1 ug/ml)” throughout. Also, the equilibrium dissociation constant (Kd) in assay [5] amounted to 2000 pM.

B5: 32C12_21A4 (antibody, V domains shown)
VH: QVQLVESGGGVVQPGRSLRLSCAASGFTFRNYGIHWVRQAPGKGLEWVAVIWYDGSNKFYADSVKGRFTISRDNSKNTLYLQMNSLRVEDTAVYYCAREEGIAVAPFDYWGQGTLVTVSS
VL: DIQMTQSPSSLSASVGDRVAITCRANQSIASYLNWYQQKPGKAPKLLIYGASSLQNGVPSRFSGSGSRTDFTLTISSLQPEDFATYYCQQSYSTEITFGQGTRLEIK
Consider B5, for which the binding result in assay [2] and in assay [7] was “no binding (tested: 1 ug/ml)” each time. Moreover, the results for the Kd in [11] and in assay [5] were 1000 pM and 1400 pM, respectively.

B6: 37D11_21C2 (antibody, V domains shown)
VH: QVQIKESGPGLVKPSETLSLTCAVSGFSFSSGYYWGWIRQPPGKGLEWLGSFFHNGNTYYNPSLRSRVTISVDTSKNHFSLKLTSVTAADTAVYYCAGFGDLPHYHYYVMDVWGQGTTVTVSS
VL: EIVLTQSPATLSLSPGERATLSCRASQSVSSYLAWYQQKPGQAPRLLIYDASNRAIGIPARFSGSGSGTDFTLTISSLEPEDFAVYYCQQRSNWPPYTFGQGTKLEIK
As for B6, the binding result in assay [2] and in [7] was “no binding (tested: 1 ug/ml)” in each case. For the same molecule, in assay [5], the equilibrium dissociation constant (Kd) stood at 13000 pM.

B7: 5G8_18A1 (antibody, V domains shown)
VH: QVELQESGPGLVKPSDTLSLTCTVTGGSISTYYWSWIRQPPGKGLEWIGYIFYTGTTNYNPSLKSRVTISVDASKNQFSLKLNSVTAADTAVYYCARDGSLDYWGQGALVTVSS
VL: DIQMTQSPSSLSASVGDRVTITCRASQSISNYLNWYQQKPGKAPKLLIFVASLLQSGVPSRFSGSGSGTDFTLTISSLQPEDFATYYCQQSYSTPFTFGPGTKLEIK
Take B7: the binding result in assay [2] and in assay [7] was “no binding (tested: 1 ug/ml)” throughout. Moreover, the “EC50, inhibition of signalling by 0.5 ng/ml IL-1beta in HEK-Blue IL-1beta reporter cells (Abs. 620 nM)” value in [3] was 580 pM. In addition, the dissociation constant (Kd) in [5] turned out to be 400 pM. In addition, the “EC50, inhibition of signalling by 0.5 ng/ml IL-1a (IL-1alpha) in the HEK-Blue IL-1 reporter assay (Abs. 620 nM)” value in [6] amounted to 830 pM.

B8: 16H2_17D2 (antibody, V domains shown)
VH: QVQLVESGGGVVQPGGSLRLSCAASGFTFSSHGMHWVRQAPGKGLEWVAVIWYDGSNKFYTDSVQGRFTISRDNSKNTLNLQMNSLRAEDTAVYYCAREGLRAGYYFDFWGQGTLVTVSS
VL: DIQMTQSPSSLSASVGDRVTITCRASQRISFYSNWYQQKPGKAPKLLIYAASSLQSGVPSRFSGSGSGTDFTLTISSLQPEDFATYFCQQSHSTPLTFGGGTKLEIK
Turning to B8, the binding result in assay [9] and in assay [10] was “no binding (tested: 1 ug/ml)” in each case. Moreover, in assay [3], the “EC50, inhibition of signalling by 0.5 ng/ml IL-1beta in HEK-Blue IL-1beta reporter cells (Abs. 620 nM)” value worked out at 100 pM. The equilibrium dissociation constant (Kd) in assay [5] was 200 pM. For the same molecule, in assay [6], the “EC50, inhibition of signalling by 0.5 ng/ml IL-1a (IL-1alpha) in the HEK-Blue IL-1 reporter assay (Abs. 620 nM)” value is 90 pM.

B9: 36A10_21B6 (antibody, V domains shown)
VH: QGQVVESGGGVVQPGRSLRLSCAASGFTFSSYTLHWVRQAPGKGLEWVAVIWYDGSNKYYVDSVKGRFTISRDNSKNTLYLQMNSLRAEDTAVYYCAREYGSGSYYNVYYGMDVWGQGTTVTLSS
VL: DIVMTQSPLSLPVTPGEPASISCRSSQSLLHSNGYNYLDWYLQKPGQSPHLLIYLASNRASGVPDRFSGSGSGTDFTLKISRVEAEDVGFYYCMQTLQIPLTFGGGTKVEIK
B9: the binding result in assay [2] and in assay [7] was “no binding (tested: 1 ug/ml)” in each case. Further, the “EC50, inhibition of signalling by 0.5 ng/ml IL-1beta in HEK-Blue IL-1beta reporter cells (Abs. 620 nm); row printed as 36A10_21C2” value in assay [3] was 290 pM. In assay [4], the “EC50, inhibition of signalling by 0.5 ng/ml IL-33 in HEK-Blue IL-33 reporter cells (Abs. 620 nM)” value was found to be 1760 pM. Besides, the equilibrium dissociation constant (Kd) in assay [5] was determined as 400 pM. In addition, the “EC50, inhibition of signalling by 0.5 ng/ml IL-1a (IL-1alpha) in the HEK-Blue IL-1 reporter assay (Abs. 620 nm); row printed as 36A10_21C2” value in assay [6] came out at 660 pM.

B10: 10C8_15A1 (antibody, V domains shown)
VH: QVQLVESGGGVVQPGRSLRISCAASGFTFRSYGMHWVRQAPGKGLEWVAIIWHDESYKYYVDSVKGRFTISRDNSKNTLYLQMNSLRAEDTAVYYCARGDYYGSGSYYDAFDIWGQGTMVTVSS
VL: DIQMTQSPSSLSASVGDRVIITCRASQGISNYLAWFQQKPGKCPNLLIYAASTLRSGVPSRFSGSGSGTDFTLTISSLQPEDVATYYCQKYNSAPYTFGQGTKVEIK
Turning to B10, the binding result in [2] and in assay [7] was “no binding (tested: 1 ug/ml)” in each case. Besides, the Kd in assay [5] came to 30000 pM.
